This note sets out measurements from patent US20090053230A1 (Genentech, published 2009).

The term EC50 denotes the midpoint of the concentration-response curve. As usually defined, the Kd is the free concentration of one partner at which half of the binding sites on the other are occupied at equilibrium, for simple one-to-one binding. Low values mean higher affinity, high ones lower affinity. As usually defined, the koff is the rate constant with which the complex falls apart.

Assay [1] has as its target T1, recombinant human OX40L-flag polypeptide (human OX40 ligand extracellular domain fused to the flag peptide) (human, UniProt P23510 51-183).
T1 construct: extracellular domain; Expressed from CHO cells (Genentech); also called human OX40L ECD-Flag polypeptide; human OX40L in solution; not shown: flag peptide
T1 sequence (looked up): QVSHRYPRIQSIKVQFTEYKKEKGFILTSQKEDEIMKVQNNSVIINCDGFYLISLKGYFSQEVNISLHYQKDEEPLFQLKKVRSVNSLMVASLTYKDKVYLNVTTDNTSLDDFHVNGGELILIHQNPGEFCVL
In words: competition ELISA, OX40L ECD-Flag captured by anti-Flag; competitor human OX40-IgG-bio; OX40L ECD-Flag captured on anti-Flag plate; OX40-IgG-bio as competitor. On the procedure: Competition ELISA analysis was conducted as follows to examine binding of anti-OX40L Mabs 8E12 and 13G5 to OX40L in solution, and to examine binding to cell-surface expressed OX40L. In some experiments, maxiSorp 96-well microwell plates (Nunc, Roskilde, Denmark) were coated overnight at 4° C. with 2 ug/ml anti-FlagM2 antibody (Sigma) in 50 mM carbonate buffer, pH 9.6. Plates were washed with PBS containing 0.05% polysorbate 20 and blocked with 0.5% bovine serum albumin, 10 ppm Proclin 300 (Supelco, Bellefonte, Pa.) in PBS at room temperature for 1 h. Plates were washed and 0.5 ug/ml of human OX40L ECD-Flag polypeptide was added. After a one-hour incubation, plates were washed. A mixture of human OX40-IgG-bio and serial dilutions of antibodies in PBS containing 0.5% bovine serum albumin, 0.05% polysorbate 20, 10 ppm Proclin 300 was added. The plates were incubated for 2 h at room temperature and washed. Bound human OX40-IgG-bio was detected by adding streptavidin-HRP (Amdex, Copenhagen, Denmark) followed by 3,3′,5,5′-tetramethyl benzidine (Kirkegaard & Perry Laboratories, Gaithersburg, Md.) as the substrate. […] Absorbance was read at 450 nm on a Titertek stacker reader (ICN, Costa Mesa, Calif.). The titration curves were fit using a four parameter regression curve fitting program (KaleidaGraph, Synergy software, Reading, Pa.). […]
For orientation: ELISA stands for enzyme-linked immunosorbent assay.

A further assay has as its target T2, mouse OX40L (mouse, UniProt P43488 51-198, limits assumed).
T2 construct: Construct coated on the plate is not described
T2 sequence (looked up): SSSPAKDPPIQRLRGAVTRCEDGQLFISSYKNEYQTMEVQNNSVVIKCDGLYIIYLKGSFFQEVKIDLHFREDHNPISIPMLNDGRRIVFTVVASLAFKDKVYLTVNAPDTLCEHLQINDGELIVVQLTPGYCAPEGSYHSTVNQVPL
In words: ELISA, plates coated with mouse OX40L, goat anti-mouse Fc-HRP detection. The protocol: (§1) To determine whether Mabs 8E12 and 13G5 bound mouse OX40L, ELISA plates were coated with mouse OX40L. Serial dilutions of 8E12 or 13G5 (0.004-4 ug/ml) were added. Goat anti-mouse Fc-HRP was used for detection. No binding was observed. In a different format, ELISA plates were coated with 8E12 or 13G5. Serial dilutions of mouse OX40L-Flag were added. Biotinylated anti-Flag followed by streptavidin-HRP was used for detection. No binding was observed.

Assay [2] concerns the target T3, full-length human OX40L expressed on CHO cells (human, UniProt P23510 1-183).
T3 construct: whole, on cells; also called CHO-OX40L cells; OX40L-expressing CHO cells
T3 sequence (looked up): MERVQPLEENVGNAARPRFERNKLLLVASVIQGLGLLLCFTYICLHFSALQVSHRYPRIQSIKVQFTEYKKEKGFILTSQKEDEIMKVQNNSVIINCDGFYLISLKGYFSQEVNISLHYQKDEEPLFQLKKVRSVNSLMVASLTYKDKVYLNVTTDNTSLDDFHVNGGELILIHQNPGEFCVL
Put plainly: Scatchard analysis, iodinated antibody on OX40L-expressing CHO cells. On the procedure:
Scatchard binding experiments were performed to determine if anti-OX40L mAbs 8E12 and 13G5 compete with each other for binding similar or overlapping epitopes on CHO cells expressing human OX40L, and to determine the binding affinity of the antibodies. 50 ug of anti-OX40L murine monoclonal antibodies 8E12 and 13G5 were iodinated using a standard lactoperoxidase method. Antibodies 8E12 and 13G5 were serially diluted 1:4 in media buffer (Dubeccos F12:DMEM, 1% bovine serum albumin, 0.05% sodium azide and 25 mM Hepes buffer pH 7.2) starting at an initial concentration of 200 nM. Two sets of dilution series (50 uL) were performed in duplicate in a 96 microwell plate. Wells from each set of dilutions received 50 uL of either iodinated 8E12 or 13G5 (0.25 nM final concentration). The plate was mixed and then the entire mixture was transferred to a 96 well tissue culture plate containing 30,000 OX40L-expressing CHO cells per well which had been plated out the previous day. The plates were covered and incubated overnight at 4° C. The next day the wells (containing cells) were aspirated and washed twice with media buffer. 200 uL of 1N NaOH was added to each well to lyse the cells, shaken for 10 minute, and then transferred to a 96 well microtube. Each tube was counted in a Wallac gamma scintillation counter. […]

The target in another assay is T4, mouse OX40L-Flag (mouse, UniProt P43488 51-198, limits assumed).
T4 construct: not shown: Flag tag
T4 sequence (looked up): T2 sequence (looked up)
Put plainly: ELISA, plates coated with antibody, serial dilutions of mouse OX40L-Flag, biotinylated anti-Flag and streptavidin-HRP detection. On the procedure: as §1

For assay [3], the target named is T1, recombinant human OX40L-flag …. In words: SPR (BIAcore 3000), OX40L-Flag captured by immobilised anti-Flag, IgG as analyte. The protocol:
Binding kinetics of mouse anti-OX40L antibodies to human OX40L were measured by surface plasmon resonance using Pharmacia BIAcore® 3000 (BIAcore AB, Uppsala, Sweden) at room temperature (Karlsson et al., 1994; Morton & Myszka, 1998). Anti-Flag antibody (anti-FlagM2, Sigma, St. Louis, Mo.) was immobilized to the sensor chip (CM5) through primary amine groups. A high flow rate was used in order to minimize mass transport effects. The carboxymethylated sensor chip surface matrix was activated by injecting 20 ul of a mixture of 0.025 M N-hydroxysuccinimide and 0.1 M N-ethyl-N′(dimethylaminopropyl) carbodiimide at 5 ul/min. 7 ul of 50 ug/ml anti-Flag in 10 mM sodium acetate, pH 4.5, were injected at 5 ul/min twice. After coupling, unoccupied sites on the chip were blocked by injecting 20 ul of 1M ethanolamine, pH 8.5. The running buffer was PBS containing 0.05% polysorbate 20. 5 ul of 4 ug/ml OX40L-Flag were injected at 30 ul/min to bind […] to the anti-Flag on the chip. For kinetic measurements, two-fold serial dilutions (6.2-50 nM) of mouse […] 8E12 (PUR 9333) and 13G5 (PUR 9306) in running buffer were injected over flow cell for 2 minutes at a flow rate of 30 ul/min and the bound anti-OX40L antibody was allow to dissociate for 20 minutes. […] Data were analyzed using a 1:1 binding model using global fitting. […]
On the technique in general: In SPR one partner is held on a chip, and binding of the other changes the refractive index at the surface.

For assay [4] the target is unchanged. In words: competition ELISA, coated human OX40-IgG as competitor, Flag-tagged OX40L (printed 'OX40-Flag') in solution with antibody dilutions; plate coated with OX40-IgG; Flag-tagged ligand in solution with antibody.
The target in assay [5] is T3, full-length human OX40L expressed on …. Put plainly: cell-based competition ELISA on CHO cells expressing full-length human OX40L; competitor human OX40-IgG-bio, streptavidin-HRP. The protocol:
(§2) In other experiments, CHO cells expressing full-length human OX40L were grown in 50:50 F12/DMEM medium supplemented with 2 mM L-glutamine, 100 units/ml penicillin, 100 ug/ml streptomycin (supplemented medium), and 5% FBS (Gibco BRL Life Technologies, Gaithersburg, Md.) (growth medium) in a humidified 5% CO₂ incubator at 37° C. Cells were detached from culture plates using Accutase (ICN) and added to 96 well microwell plates at 300,000 cells/well. A mixture of human OX40-IgG and serial dilutions of antibodies in growth medium was added to the plates. After a one-hour incubation on ice, cells were washed by centrifuging the plates and removing the supernatant. Bound human OX40-IgG was detected using anti-Fc-HRP. […] In some experiments, human OX40-IgG-bio was used instead of human OX40-IgG. Bound human OX40-IgG-bio was detected using streptavidin-HRP. Plates were developed and read as described above.

Assay [6] has the same target. Put plainly: cell-based competition ELISA on CHO cells expressing full-length human OX40L; competitor human OX40-IgG, anti-Fc-HRP. The protocol:
as §2

Assay [7] has the same target. In words: competitive radioligand binding on OX40L-expressing CHO cells; antibody titrated against iodinated OX40-Fc (0.25 nM final), overnight at 4 C, gamma counting, 4-parameter fit. The protocol:
Competitive binding experiments were performed to determine if anti-OX40L mAbs 8E12 and 13G5 competed with iodinated OX40-Fc (extracellular domain of OX40 receptor fused to Fc domain) for binding to OX40L expressed on CHO cells. 50 ug of […] was iodinated using a standard lactoperoxidase method. Antibodies 8E12 and 13G5 were serially diluted 1:4 in media buffer (Dubeccos F12:DMEM, 1% bovine serum albumin, 0.05% sodium azide and 25 mM Hepes buffer pH 7.2) starting at an initial concentration of 200 nM. Dilutions (50 uL) were performed in duplicate in a 96 microwell plate. Each well received 50 uL of iodinated […] (0.25 nM final concentration), was mixed and then the entire mixture was transferred to a 96 well tissue culture plate containing 30,000 OX40L-expressing CHO cells per well, which had been plated out the previous day. The plates were covered and incubated overnight at 4° C. The next day the wells (containing cells) were aspirated and washed twice with media buffer. 200 uL of 1N NaOH was added to each well to lyse the cells, shaken for 10 minute, and then transferred to a 96 well microtube. Each tube was counted in a Wallac gamma scintillation counter. The data was collected and plotted using Kaleidagraph. Curves were drawn using a 4-parameter fit.

B1: mouse anti-human OX40L monoclonal antibody 8E12 (antibody, V domains shown)
VH: QVQLQQPGAELVRPGASVKLSCKASGYTFTSYWLNWVKQRPGQGLEWIVMIDPSDSETHYNQVFKDKATLTVDKSSSTAYMQLSSLTSEDSAVYYCIRGRGNFYGGSHAMEYWGQGTLLTVSS
VL: DILMTQTPLSLPVSLGDQASISCRSSQSIVHGNGNTYLEWHLQKPGQSPKLLIYRVSNRFSGVPDRFSGSGSGTDFTLKINRVEAEDLGVYYCFQGSHVPYTFGGGTKVEIKR
notes: Tested as mouse IgG purified from hybridoma medium by Protein A; also called Mab 8E12; anti-OX40L mab 8E12
Consider B1, for which the EC50 is roughly 1.4 nM in [1], roughly 1.9 nM in [4], roughly 11 nM in assay [5] and roughly 20 nM in assay [6]. Further, the binding result with mouse OX40L was “no binding (tested: 0.004-4 ug/ml)”; with mouse OX40L-Flag, “no binding”. The molecule also showed a Kd in assay [2] of 0.92 nM. Moreover, the koff in assay [3] is less than 5e-06 s⁻¹. The “IC50 (read off the curve)” value in [7] lay in the range of 2.5 to 3 nM.
